Marks after values point to notes of the source that are not given here.
B1: 206/208: human anti-MBG antibody, VH SEQ ID NO: 36, VL SEQ ID NO: 37 (antibody, listed as Homo sapiens, V domains shown)
VH: QVQLQESGPGLVKPSETLSLTCTVSGGSISSSSYYWGWIRQPPGKGLEWIGSIYYSGSTYYNPSLKSRVTISVDTSKNQFSLKLSSVTAADTAVYYCARVNLRGAFDIWGQGTTVTVSS
VL: QSVVTQPPSVSGAPGQRVTISCTGSSSNIGAGYDVHWYQQLPGTAPKLLIYENNKRPSGIPDRFSGSKSGTSATLGITGLQTGDEADYYCGTWDSSLSAVVFGGGTKLTVL
B2: 236/237: human anti-MBG antibody, VH SEQ ID NO: 14, VL SEQ ID NO: 15 (antibody, listed as Homo sapiens, V domains shown)
VH: QVQLQESGPGLVKPSETLSLTCTVSGGSISSSSYYWGWIRQPPGKGLEWIGSIYYSGSTYYNPSLKSRVTISVDTSKNQFSLKLSSVTAADTAVYYCARARYNWNYVLFDYWGQGTLVTVSS
VL: QAVLTQPSSVSAAPRQRVTISCSGSASNIGRNGVSWYHQVPGKAPRLLLSHDGLVTSGVPDRLSVSKSGTSASLAISGLHSDDEGDYYCAVWDDSLNAVVFGGGTKLTVLS
B3: 201/202: human anti-MBG antibody, VH SEQ ID NO: 22, VL SEQ ID NO: 23 (antibody, listed as Homo sapiens, V domains shown)
VH: QLQLQESGPGLVKPSQTLSLTCTVSGGSISSGGYYWGWIRQPPGKGLEWIGSIYYSGNTYYNPSLKSRVTISVDTSKNQFSLKLSSVTAADTAVYYCARASIAARTFDYWGQGTLVTVSS
VL: QSVLTQPPSVSAAPGQKVTISCSGSSSNIGNNYVSWYQQLPGTAPKLLIYDNNKRPSGIPDRFSGSKSGTSATLGITGLQTGDEADYYCGTWDSSLSAYVFGTGTKVTVL

Columns and labels:
human CTB cells = type: cell-based
[1] = system: pregnant Sprague-Dawley rats; assay: DOCA/saline rat model of pre-eclampsia; type: in vivo; settings: antibodies 2.2 mg/kg/d i.p. days 16-18 in PDS rats
Protocol: Female Sprague-Dawley rats (200-250 g, Charles River Laboratories) were acclimatized for 1 week, and mated with male Sprague-Dawley rats (275-300 g). Pregnancy was confirmed by the presence of vaginal plugs or by examination of vaginal smears. Each rat was housed separately.
Five groups of rats were studied (n=10 per group): Group 1 (NP): normal pregnant rats; Group 2 (PDS): pregnant rats injected i.p. initially with 12.5 mg of DOCA in a depot form, followed by a weekly i.p. injection of 6.5 mg of DOCA, and whose drinking water is replaced with 0.9% saline; Group 3 (NPM): Normal pregnant rats given daily injections of MBG (7.65 μg per kg body weight per day) once pregnancy was established on day four of the experiment; Group 4 (PDS-3E9): rats administered DOCA and saline as for Group 2, and also given the murine anti-MBG antibody 3E9 (2.2 mg per kg body weight per day) on days 16, 17, and 18 of pregnancy; and Group 5 (PDS-H3L2): rats administered DOCA and saline as for Group 2, and also given the humanized anti-MBG antibody H3L2 (2.2 mg per kg body weight per day) on days 16, 17, and 18 of pregnancy.
Systolic blood pressure (BP) was measured by tail cuff at days 17-19. At least 3 readings are taken after BP has stabilized, and the mean of these values was calculated. The reported BP values are the mean of the daily measurements. At 18-20 days of pregnancy, 24-hour urine was collected in the absence of food to avoid contamination of the measurement of the protein amount in urine by any fallen food particles. Each rat was housed separately in a metabolic cage during this portion of the study. The 24-hour protein excretion was measured and was normalized to creatinine. The rats were sacrificed after the last measurement on days 18-20, and blood samples were taken. The number of fetal pups was counted and examined. The mean number of pups and any developmental or histological abnormalities in the pups were assessed. Statistical analysis was performed using analysis of variance and Tukey's post hoc test. A p value ≤0.05 was considered statistically significant.

Na^+K^+-ATPase (NKA) = assay: Na^+K^+-ATPase activity (Malachite Green Phosphate Assay); type: biochemical, rat; settings: NKA from rat heart (SLP fraction); Pi read as OD 630 nm; FIG. 4
Protocol: Na^+K^+-ATPase (NKA) was purified from rat heart. The NKA was collected as the sarcolemmal/particulate (SLP) fraction and frozen.
Na^+K^+-ATPase activity was measured as follows: aliquots of SLP were mixed with Reaction Buffer (200 mM Tris-HCl, pH 7.5, 200 mM NaCL, 30 mM MgCl2, 60 mM KCl, 10 mM EGTA, 100 μg/mL PMSF, 2 μg/mL pepstatin A, and 2 μg/mL aprotinin). Reactions were performed with or without MBG and with or without anti-MBG antibodies (1-100 μg/mL). Ouabain was used as positive control for NKA inhibition. Tubes were prewarmed, and ATP was added. Reactions were stopped and were placed on ice.
Phosphate was assayed using the Malachite Green Phosphate Assay. Phosphate standard or sample was added to each well of a 96-well plate, followed by Reagent A. Reagent B was added, with mixing and incubation. OD was then read at 630 nm in a microplate spectrophotometer.

[2] = system: pregnant Sprague-Dawley rats; assay: DOCA/saline rat model of pre-eclampsia; type: in vivo; settings: tail cuff; baseline; antibodies 2.2 mg/kg/d i.p. days 16-18 in PDS (DOCA/saline) rats; MBG 7.65 μg/kg/d in normal pregnant rats (NPM); N = 10
[3] = system: PKC-δ in the nucleus of primary rat cardiac fibroblasts; assay: Inhibition of MBG-induced PKC-δ nuclear translocation (Western blot); settings: for amount of PKC-δ in the nucleus, MBG plus antibody: MBG 2 nM, nuclei isolated 30 min later, FIG. 2a
Protocol: MBG was incubated with an anti-MBG antibody prior to addition to cultured primary rat cardiac fibroblasts. Nuclei were isolated 30 min later and analyzed for amount of PKC-6.

[4] = ELISA avidity estimate on MBG-BSA; type: binding; settings: wells coated with 2 μg/ml MBG-BSA; IgG
Protocol: (§1) The avidity of anti-MBG antibodies for MBG was estimated in an ELISA. Wells of a microtiter plate were coated with 2 μg/ml of either MBG-bovine serum albumin (BSA) or MBG-keyhole limpet hemocyanin (KLH). The wells were then blocked with 1% BSA. A test IgG antibody at varying concentrations (typically from about 0.0001 nM to about 25 nM) was added to the wells. The test IgG bound to immobilized MBG was detected with an anti-human Fc, horseradish peroxidase (HRP)-conjugated secondary antibody (Jackson ImmunoResearch). After washing of the wells, an appropriate HRP reagent (e.g., TMB ultra, Thermo Fisher) was added to the wells. Optical density (OD) at 450 nm was measured by a microplate reader. The concentration of test antibody at the midpoint of the binding curve is an estimate of avidity for MBG.

[5] = ELISA avidity estimate on MBG-KLH; type: binding; settings: wells coated with 2 μg/ml MBG-KLH; IgG
Protocol: as §1

[6] = Competitive ELISA, relative CTS specificity, free MBG as competitor; type: binding; settings: competition with immobilized MBG-BSA; normalized to MBG = 100%
Protocol: (§2) The specificity (relative affinity) of anti-MBG antibodies for MBG relative to various cardiotonic steroids (CTSs) was determined in a competitive ELISA. Each anti-MBG antibody was tested for its binding to immobilized MBG in the presence of free MBG, resibufogenin (RBG), cinobufagin (CINO), ouabain (OUB) or digoxin (DIG) as a competitor. A constant amount of an anti-MBG antibody (typically 1-5 μg/mL) and varying concentrations of each CTS (from 10^−12M to 10^−5M) were pre-incubated before being added to the MBG-BSA-coated wells. After washing of the wells, an anti-human Fc, HRP-conjugated secondary antibody (at 1:5000 dilution) was added to the wells and incubated at 37° C. for 1 hr. After washing of the wells, an appropriate HRP reagent (e.g., TMB ultra, Thermo Fisher) was added to the wells. OD at 450 nm was measured by a microplate reader. MBG at 10 μM was assumed to be 100% competed, and MBG at 1 pM was assumed to be 0% competed. The data was plotted as a titration of antibody-antigen binding relative to free CTS concentration in the competition reaction to determine the free CTS concentration (μM) giving 50% maximal binding of antibody to immobilized MBG. The relative specificity of an antibody for a CTS was normalized to MBG=100%.

[7] = Competitive ELISA, relative CTS specificity, RBG as competitor; type: binding; settings: competition with immobilized MBG-BSA; normalized to MBG = 100%
Protocol: as §2

[8] = Competitive ELISA, relative CTS specificity, CINO as competitor; type: binding; settings: competition with immobilized MBG-BSA; normalized to MBG = 100%
Protocol: as §2

[9] = Competitive ELISA, relative CTS specificity, OUB as competitor; type: binding; settings: competition with immobilized MBG-BSA; normalized to MBG = 100%
Protocol: as §2

[10] = Competitive ELISA, relative CTS specificity, DIG as competitor; type: binding; settings: competition with immobilized MBG-BSA; normalized to MBG = 100%
Protocol: as §2

[11] = Competitive ELISA, free CTS competitors overall (summary and footnote); type: binding; settings: competitors RBG, CINO, OUB, DIG; Table 2
Protocol: as §2

[12] = system: human umbilical cord venous endothelial cells (HUVEC); assay: Reversal of MBG inhibition of HUVEC cell proliferation (3H-thymidine); type: cell-based; settings: MBG 2 nM, antibody 20 μg/mL, 48 hr; FIG. 3a
Protocol: MBG (2 nM) was incubated with an antibody (20 μg/mL in FIG. 3a with human anti-MBG mAbs, or varying concentrations (2.5-10 μg/mL) in FIG. 3b with humanized anti-MBG mAbs) prior to addition to cultured human umbilical cord venous endothelial cells (HUVEC). After 48 hr, DNA synthesis was assessed by incorporation of ^3H-thymidine.
HUVEC cells in endothelial cell growth medium were plated onto 96-well plates. The next day, the cells were pretreated with various antibodies (2.5-20 μg/mL) and then incubated with 2 nM MBG for 48 hr. [^3H]-Thymidine was added to each well. [^3H]-Thymidine-labeled DNA was assayed by harvesting the cells and assaying for ^3H using a PerkinElmer Wallac Tailux liquid scintillation counter. […] Means were tested for significance using Student's t-test.

| Molecule | inhibition of NKA activity (Na^+K^+-ATPase (NKA)) | Estimated avidity (KA) (antibody concentration at 50% maximal binding to antigen, or EC50), Antigen 1 (MBG-BSA) [4] | Estimated avidity (KA) (antibody concentration at 50% maximal binding to antigen, or EC50), Antigen 2 (MBG-KLH) [5] | Rel. CTS Specificity as % of MBG Binding: MBG [6] | Rel. CTS Specificity as % of MBG Binding: RBG [7] | Rel. CTS Specificity as % of MBG Binding: CINO [8] | Rel. CTS Specificity as % of MBG Binding: OUB [9] | Rel. CTS Specificity as % of MBG Binding: DIG [10] | reaction with CTS competitor molecules [11] | amount of PKC-δ in the nucleus, MBG plus antibody [3] | MBG inhibition of HUVEC cell proliferation, human mAbs [12] | also measured |
| --- | --- | --- | --- | --- | --- | --- | --- | --- | --- | --- | --- | --- |
| C[C@]12CC[C@H](O)C[C@@]1(O)CC[C@@H]1[C@@H]2CC[C@]2(C)[C@@H](c3ccc(=O)oc3)C[C@H]3O[C@]132 [MBG, marinobufagenin] | inhibit the NKA activity significantly | – | – | – | – | – | – | – | – | – | – | PCNA expression, MBG compared to vehicle (DMSO) (human CTB cells): significantly downregulated; phosphorylation of p38 MAPK, MBG compared to vehicle (DMSO) (human CTB cells): increased; secretion of P1GF, MBG compared to vehicle (DMSO) (human CTB cells): significantly reduced; secretion of VEGF, MBG compared to vehicle (DMSO) (human CTB cells): significantly reduced; secretion of sEng, MBG compared to vehicle (DMSO) (human CTB cells): significantly increased; secretion of sFlt1, MBG compared to vehicle (DMSO) (human CTB cells): significantly increased; % Malformed Pups ([1]; MBG 7.65 μg/kg/d in NPM rats): 18 * %; No. Pups ([1]; MBG 7.65 μg/kg/d in NPM rats): 9.5 ± 1.3; Urine Protein ([1]; normalized to creatinine, 18-20 days of pregnancy, MBG 7.65 μg/kg/d in NPM rats): 6.4 ± 1.8 mg/24 h; Blood Pressure-Final ([1]; tail cuff, 17-19 d of gestation, MBG 7.65 μg/kg/d in normal pregnant rats (NPM), N = 10): 137 ± 5 mm Hg; Blood Pressure-Initial [2]: 104 ± 4 mm Hg; amount of PKC-δ in the nucleus, MBG alone compared to Control (vehicle) ([3]; MBG at 2 nM): induced an increase |
| C[C@@H]1O[C@@H](O[C@H]2C[C@@H](O)[C@]3(CO)[C@H]4[C@H](O)C[C@]5(C)[C@@H](C6=CC(=O)OC6)CC[C@]5(O)[C@@H]4CC[C@]3(O)C2)[C@H](O)[C@H](O)[C@H]1O [Ouabain, ouabain] | inhibit the NKA activity significantly | – | – | – | – | – | – | – | – | – | – | – |
| B1 | – | 1350 pM | 200 pM | 100% | 20% | 0% | 0% | 0% | reacted with CTS competitor RBG | reduced | – | – |
| B2 | – | 120 pM | 140 pM | 100% | 0% | 0% | 0% | 0% | did not react with any of the CTS competitor molecules | reduced | significantly reduced | – |
| B3 | – | 330 pM | 200 pM | 100% | 50% | 20% | 0% | 0% | reacted with the CTS competitors RBG and CINO | reduced | significantly reduced | – |
